# Reference: patent US20100111957A1 (TECHNION RESEARCH AND DEVELOPMENT FOUNDATION, published 2010)
# Tests used:
# [1] = molecular target: T1, recombinant biotinylated single-chain HLA-A2/pp65 495-503 complex (human; cytomegalovirus (CMV)); test: SPR, Biacore 2000; biotinylated HLA-A2/pp65 on streptavidin chip
# [2] = molecular target: T1, recombinant biotinylated single-chain …
Binder,koff [1] [s⁻¹],kon [1] [M⁻¹ s⁻¹],Kd [2] [nM]
"H9 Fab (soluble recombinant Fab, monomer) (Fab, V domains shown, also called Fab H9; H9 Fab monomer) VH: EVQLVQSGAEVKKPGSSVKVSCKASGGTFSSYAISWVRQAPGQGLEWMGGIIPIFGTANYAQKFQGRVTITADESTSTAYMELSSLRSEDTAVYYCARGDLYYYDSSGYPRYYFDYWGQGTLVTVSS VL: ETTLTQSPGTLSLSPGERATLSCRASQSVSSSYLAWYQQKPGQAPRLVIYGASSRATGIPDRFSGSGSGTDFTLTISRLEPEDFAVYYCQHYSTSPGFTFGQGTKLEIRR",0.000879,105000,8
"H9 whole IgG antibody (H9 Fab-derived IgG1, kappa) (antibody, V domains shown, also called H9 IgG; H9 IgG Ab) VH: EVQLVQSGAEVKKPGSSVKVSCKASGGTFSSYAISWVRQAPGQGLEWMGGIIPIFGTANYAQKFQGRVTITADESTSTAYMELSSLRSEDTAVYYCARGDLYYYDSSGYPRYYFDYWGQGTLVTVSS VL: ETTLTQSPGTLSLSPGERATLSCRASQSVSSSYLAWYQQKPGQAPRLVIYGASSRATGIPDRFSGSGSGTDFTLTISRLEPEDFAVYYCQHYSTSPGFTFGQGTKLEIRR",0.00352,599000,5
